Results on one molecule are retold here after publication PMC2891831, “Insight into the Mechanisms of Adenovirus Capsid Disassembly from Studies of Defensin Neutralization” (PLoS Pathogens, 2010).

“Also recorded” adds a separate entry of the source.

Test [1] has as its system GYAR virus. Briefly: Infection assay, GYAR virus. Type of test: cell-based, human adenovirus. The note with it: 5 µM HD5, A549 cells, at least three independent experiments. Here is the method:
(§1) Figure 6 Neutralization determinants are located in fiber and penton base. A) Schematic of chimeric viruses. Capsid proteins are depicted in the order in which they are encoded in the virus genome for HAdV-5 (white) and HAdV-19c (grey). The variable residues in fiber (GYAR and DTET) are indicated for each construct. B) Each of the chimeric viruses was incubated with 5 µM (grey) or 10 µM (black) HD5 and assessed for infectivity on A549 cells. Data are the mean of the percent infectivity compared to control cells infected with each virus in the absence of defensin for at least three independent experiments ± SD. The upper limit for quantification of this assay is 200%.
(§2) We then combined the GYAR substitution with the PB substitution in a single construct (PB/GYAR).
(§3) Prior to use in this assay, each virus stock was titrated on A549 cells. A virus concentration was chosen to produce 50–70% maximal signal in the absence of defensin as described below. […] In parallel, wells were infected with two-fold serial dilutions of each virus to establish a standard curve for quantification with an upper limit of 200%. […] Total well fluorescence above background was quantified with ImageJ software. For each virus, samples were quantified by nonlinear regression against the standard curve using Prism software (GraphPad Software, Inc., La Jolla, CA).

Test [2] has as its system HAdV-19c. In words: Infection assay, HAdV-19c. Type of test: cell-based, human adenovirus. How it is done: as §1, §2, §3
For test [3], the system named is 19cF. Briefly: Infection assay, 19cF virus chimera. Type of test: cell-based, human adenovirus. An excerpt:
The availability of sensitive (e.g., HAdV-5) and resistant (e.g., HAdV-19c) serotypes provided a means to test this HD5 neutralization model by generating virus chimeras. Initially, virus chimeras were constructed by replacing the sequences for fiber, penton base, and hexon in the HAdV-5 genome with the corresponding sequences from HAdV-19c. Consistent with previous studies, [38], the virus chimera containing the HAdV-19c hexon is not viable; however, constructs containing the HAdV-19c fiber (19cF) or penton base (19cPB) are capable of replicating. […] In contrast, the 19cPB virus has an intermediate phenotype.
Figure 6 Neutralization determinants are located in fiber and penton base. A) Schematic of chimeric viruses. […] B) Each of the chimeric viruses was incubated with 5 µM (grey) or 10 µM (black) HD5 and assessed for infectivity on A549 cells. […] The upper limit for quantification of this assay is 200%.
Prior to use in this assay, each virus stock was titrated on A549 cells. […] In parallel, wells were infected with two-fold serial dilutions of each virus to establish a standard curve for quantification with an upper limit of 200%. […] Total well fluorescence above background was quantified with ImageJ software. For each virus, samples were quantified by nonlinear regression against the standard curve using Prism software (GraphPad Software, Inc., La Jolla, CA).

Test [4] concerns Ad5.F35 capsid (hexon, penton base, fiber). Briefly: CryoEM difference map analysis of Ad5.F35+HD5. Type of test: binding, human adenovirus. The conditions noted are these: 20 µM HD5, 160 µg/ml Ad5.F35, cryoEM difference map, 12 Å resolution. How it is done: To obtain structural insight into the mechanism of α-defensin-mediated neutralization of HAdV infection, we studied a complex of Ad5.F35 (Ad35F) and HD5 by cryoelectron microscopy (cryoEM). This chimeric virus construct was chosen because of its short fiber and the availability of a cryoEM structure of Ad5.F35 in the absence of defensin for comparison, [31]. […] Ad5.F35 was incubated with a saturating concentration of HD5 (20 µM) then applied to grids and flash frozen for cryoEM. A dataset of 2,611 cryoEM particle images of the Ad5.F35+HD5 complex was collected and processed as performed earlier for Ad5.F35 [31]. The resolution of the icosahedral portion of the Ad5.F35+HD5 reconstruction is estimated as 12 Å by the FSC 0.5 threshold criterion, compared to 6.9 Å for the Ad5.F35 reconstruction. Both cryoEM structures are shown filtered to 12 Å resolution in Figure 4A. The most noticeable difference between the two structures is the presence of more density on top of penton base and around the fiber shaft in the Ad5.F35+HD5 structure. In addition, while the fiber knob is visible in the Ad5.F35 structure, it is only weakly reconstructed in the Ad5.F35+HD5 structure (Figure 4A inset). […]

B1: HD5: human alpha-defensin; synthetic, obtained from Peptides International; three disulfide bonds (PDB 1ZMP) (peptide, UniProt Q01523 20-94, looked up)
Defensin alpha 5: ESLQERADEATTQKQSGEDNQDLAISFAGNGLSALRTSGSQARATCYCRTGRCATRESLSGVCEISGRLYRLCCR
modifications: Defensin-5
As to B1, the “sensitivity to HD5 neutralization compared to HAdV-5” value in test [1] was “less sensitive”. Moreover, the “sensitivity to HD5 neutralization” value in test [2] (5 µM and 10 µM HD5, A549 cells) is reported as “completely resistant to neutralization”; in test [3] (5 µM and 10 µM HD5, A549 cells, at least three independent experiments, upper limit 200%) it was “completely resistant to neutralization”. Besides, the “defensin-resistance at higher HD5 concentration” value is reported as “confirmed the defensin-resistance” in test [2] (20 µM HD5, data not shown) and “confirmed the defensin-resistance” in test [3] (20 µM HD5, data not shown). Also, the “HD5 binding regions on capsid” value in test [4] was “HD5 difference density is also found within the central depression of the hexon trimers; also recorded: multiple binding sites for HD5 on the penton complex (penton base and fiber); also recorded: interacts with the exposed surfaces of the three major capsid proteins: hexon, penton base, and fiber; also recorded: extensive binding of HD5 to the fiber”.
